From US10562947B2, “Compositions and methods for preventing or treating diseases, conditions or processes characterized by aberrant fibroblast proliferation and extracellular matrix deposition” (MOERAE MATRIX, INC., priority 2011, dated 2020)

Tests used:
Assay in all cases: Kinase Profiling Assay
Type in all cases: biochemical
Conditions in all cases: 100 μM peptide
CDK6/cyclinD3(h) = CDK6/cyclinD3(h) (Homo sapiens, UniProt Q00534)
Outline: (§1)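 MK2 inhibitory peptides were screened for specificity across a commercial panel of 266 human kinases, and each kinase activity measurement was run in duplicate.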

IRAK4(h) = target: T1, IRAK4(h) (Homo sapiens, UniProt Q9NWZ3)
T1 construct: purchased Millipore
T1 sequence (Q9NWZ3 1-460): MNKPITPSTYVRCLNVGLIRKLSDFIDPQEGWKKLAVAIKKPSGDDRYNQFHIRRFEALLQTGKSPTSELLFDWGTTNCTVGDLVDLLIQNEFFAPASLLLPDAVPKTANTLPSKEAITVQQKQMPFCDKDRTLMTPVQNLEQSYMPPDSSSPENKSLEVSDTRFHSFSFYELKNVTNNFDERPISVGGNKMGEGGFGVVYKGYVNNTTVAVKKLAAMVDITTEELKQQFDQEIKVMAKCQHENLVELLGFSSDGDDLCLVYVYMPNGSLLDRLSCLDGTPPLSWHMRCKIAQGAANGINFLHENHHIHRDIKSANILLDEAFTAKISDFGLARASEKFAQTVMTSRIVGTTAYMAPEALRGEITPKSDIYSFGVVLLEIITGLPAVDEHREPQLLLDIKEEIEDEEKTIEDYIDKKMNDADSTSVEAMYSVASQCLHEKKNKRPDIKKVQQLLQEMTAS
Outline: as §1

EphB3(h) = target: T2, EphB3(h) (Homo sapiens, UniProt P54753)
T2 sequence (P54753 34-998): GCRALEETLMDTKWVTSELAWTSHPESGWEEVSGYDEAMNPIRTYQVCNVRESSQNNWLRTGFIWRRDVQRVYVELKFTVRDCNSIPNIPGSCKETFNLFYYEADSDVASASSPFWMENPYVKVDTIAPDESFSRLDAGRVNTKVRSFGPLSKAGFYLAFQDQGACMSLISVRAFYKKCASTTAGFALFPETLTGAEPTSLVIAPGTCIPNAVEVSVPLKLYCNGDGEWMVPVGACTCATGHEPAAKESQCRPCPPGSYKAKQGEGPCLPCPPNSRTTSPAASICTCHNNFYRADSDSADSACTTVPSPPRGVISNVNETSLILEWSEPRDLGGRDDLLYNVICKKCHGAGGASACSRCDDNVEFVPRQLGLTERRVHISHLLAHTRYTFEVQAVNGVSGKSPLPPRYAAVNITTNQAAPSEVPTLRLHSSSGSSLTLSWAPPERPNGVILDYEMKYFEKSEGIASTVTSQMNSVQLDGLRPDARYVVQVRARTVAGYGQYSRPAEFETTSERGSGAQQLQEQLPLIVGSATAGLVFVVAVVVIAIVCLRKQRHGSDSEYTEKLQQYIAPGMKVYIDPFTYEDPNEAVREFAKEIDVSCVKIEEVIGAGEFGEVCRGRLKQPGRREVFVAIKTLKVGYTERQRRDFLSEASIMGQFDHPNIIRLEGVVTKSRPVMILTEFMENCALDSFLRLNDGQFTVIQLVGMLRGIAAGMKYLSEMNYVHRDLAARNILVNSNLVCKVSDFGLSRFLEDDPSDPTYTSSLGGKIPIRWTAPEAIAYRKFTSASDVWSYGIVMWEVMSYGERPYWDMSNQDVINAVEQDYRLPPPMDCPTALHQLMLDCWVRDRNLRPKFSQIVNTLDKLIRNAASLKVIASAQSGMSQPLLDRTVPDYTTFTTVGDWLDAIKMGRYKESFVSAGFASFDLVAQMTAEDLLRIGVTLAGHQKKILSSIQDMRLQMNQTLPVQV
Outline: as §1

EphB1(h) = target: T3, EphB1(h) (Homo sapiens, UniProt P54762)
T3 sequence (P54762 18-984): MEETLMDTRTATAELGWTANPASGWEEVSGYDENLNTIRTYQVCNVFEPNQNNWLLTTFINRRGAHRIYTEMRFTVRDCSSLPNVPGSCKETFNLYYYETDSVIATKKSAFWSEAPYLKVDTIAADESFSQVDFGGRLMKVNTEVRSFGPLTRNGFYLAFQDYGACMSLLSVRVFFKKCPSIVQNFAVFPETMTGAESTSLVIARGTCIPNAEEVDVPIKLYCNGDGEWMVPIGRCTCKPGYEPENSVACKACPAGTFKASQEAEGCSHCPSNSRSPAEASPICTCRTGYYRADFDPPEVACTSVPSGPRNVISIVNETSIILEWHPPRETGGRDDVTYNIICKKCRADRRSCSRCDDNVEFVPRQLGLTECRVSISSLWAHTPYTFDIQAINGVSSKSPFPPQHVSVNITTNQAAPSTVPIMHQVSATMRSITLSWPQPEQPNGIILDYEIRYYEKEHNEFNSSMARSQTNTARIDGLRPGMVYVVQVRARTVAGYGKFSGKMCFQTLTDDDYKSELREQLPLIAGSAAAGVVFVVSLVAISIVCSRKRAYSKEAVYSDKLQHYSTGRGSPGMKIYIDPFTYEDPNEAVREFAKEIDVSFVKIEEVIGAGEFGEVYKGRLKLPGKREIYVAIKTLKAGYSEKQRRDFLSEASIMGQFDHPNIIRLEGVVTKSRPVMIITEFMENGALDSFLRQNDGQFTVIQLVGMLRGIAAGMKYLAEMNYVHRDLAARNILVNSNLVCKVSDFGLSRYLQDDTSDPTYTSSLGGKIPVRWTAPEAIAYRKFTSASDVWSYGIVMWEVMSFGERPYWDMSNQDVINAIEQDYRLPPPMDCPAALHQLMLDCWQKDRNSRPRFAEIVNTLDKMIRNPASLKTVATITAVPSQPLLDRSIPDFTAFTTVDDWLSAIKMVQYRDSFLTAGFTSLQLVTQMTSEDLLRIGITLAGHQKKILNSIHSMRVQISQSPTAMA
Outline: as §1

AMPKα1(h) = AMPKα1(h) (Homo sapiens, UniProt Q13131)
Sequence of AMPKα1(h) (Q13131 whole entry): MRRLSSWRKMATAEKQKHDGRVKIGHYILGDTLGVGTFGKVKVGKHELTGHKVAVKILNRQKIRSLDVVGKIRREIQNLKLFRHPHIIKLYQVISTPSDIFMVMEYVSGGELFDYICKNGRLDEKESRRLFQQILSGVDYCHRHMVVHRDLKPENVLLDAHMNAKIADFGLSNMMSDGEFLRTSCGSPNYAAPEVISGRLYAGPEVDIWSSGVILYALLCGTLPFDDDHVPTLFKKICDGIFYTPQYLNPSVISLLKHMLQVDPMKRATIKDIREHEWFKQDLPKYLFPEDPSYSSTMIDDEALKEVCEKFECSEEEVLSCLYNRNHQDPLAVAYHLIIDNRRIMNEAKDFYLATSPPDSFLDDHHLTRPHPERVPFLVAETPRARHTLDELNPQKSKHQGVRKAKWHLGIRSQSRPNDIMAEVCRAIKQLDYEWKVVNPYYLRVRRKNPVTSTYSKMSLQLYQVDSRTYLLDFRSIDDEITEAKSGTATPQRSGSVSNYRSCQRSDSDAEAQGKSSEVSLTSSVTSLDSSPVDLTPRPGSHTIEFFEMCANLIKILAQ
Sequence of AMPKα1(h) (Q9Y478 whole entry partner): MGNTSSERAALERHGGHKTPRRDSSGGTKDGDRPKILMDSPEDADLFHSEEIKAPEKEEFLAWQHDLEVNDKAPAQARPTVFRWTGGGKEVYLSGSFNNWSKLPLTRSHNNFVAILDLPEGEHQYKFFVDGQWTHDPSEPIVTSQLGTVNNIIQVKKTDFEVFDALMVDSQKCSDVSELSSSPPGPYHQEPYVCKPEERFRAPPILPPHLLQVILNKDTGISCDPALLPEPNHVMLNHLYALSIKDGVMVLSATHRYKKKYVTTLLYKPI
Sequence of AMPKα1(h) (P54619 whole entry partner): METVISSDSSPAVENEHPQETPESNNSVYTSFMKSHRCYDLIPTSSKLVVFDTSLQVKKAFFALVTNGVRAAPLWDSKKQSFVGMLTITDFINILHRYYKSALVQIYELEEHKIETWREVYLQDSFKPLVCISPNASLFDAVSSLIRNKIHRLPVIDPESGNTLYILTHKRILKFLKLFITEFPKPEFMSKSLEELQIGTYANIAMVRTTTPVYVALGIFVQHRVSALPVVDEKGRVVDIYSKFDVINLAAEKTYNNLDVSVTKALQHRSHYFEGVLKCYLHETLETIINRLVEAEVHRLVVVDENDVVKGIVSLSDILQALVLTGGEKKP
Outline: as §1

Sequence of CDK6/cyclinD3(h) (Q00534 whole entry): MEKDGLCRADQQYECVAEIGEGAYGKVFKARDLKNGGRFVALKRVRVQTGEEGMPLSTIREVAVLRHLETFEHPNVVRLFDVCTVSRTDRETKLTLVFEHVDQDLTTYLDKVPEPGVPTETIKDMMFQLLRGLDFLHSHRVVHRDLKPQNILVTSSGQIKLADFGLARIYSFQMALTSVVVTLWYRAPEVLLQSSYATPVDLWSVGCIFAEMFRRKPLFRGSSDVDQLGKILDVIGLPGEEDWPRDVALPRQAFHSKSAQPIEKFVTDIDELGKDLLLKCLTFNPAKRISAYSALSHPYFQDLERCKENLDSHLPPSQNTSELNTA
Sequence of CDK6/cyclinD3(h) (P30281 whole entry partner): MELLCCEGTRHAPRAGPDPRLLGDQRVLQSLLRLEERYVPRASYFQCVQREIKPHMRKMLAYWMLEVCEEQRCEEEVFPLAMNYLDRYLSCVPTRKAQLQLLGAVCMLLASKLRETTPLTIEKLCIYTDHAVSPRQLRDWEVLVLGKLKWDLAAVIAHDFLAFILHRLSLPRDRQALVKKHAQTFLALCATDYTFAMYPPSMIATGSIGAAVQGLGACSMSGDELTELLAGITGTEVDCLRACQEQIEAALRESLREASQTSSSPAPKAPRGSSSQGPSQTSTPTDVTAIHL

Sequence	CDK6/cyclinD3(h) % activity (CDK6/cyclinD3(h)) [%]	IRAK4(h) % activity (IRAK4(h)) [%]	EphB3(h) % activity (EphB3(h)) [%]	EphB1(h) % activity (EphB1(h)) [%]	AMPKα1(h) % activity (AMPKα1(h)) [%]
FAKLAARLYRKALARQLGVAA [MMI-0300]	86	59	62	44	71
KAFAKLAARLYRKALARQLGVAA [MMI-0400]	85	59	47	58	87
HRRIKAWLKKIKALARQLGVAA (Mammalian) [MMI-0500]	23	3	79	37	35
YARAAARQARAKALNRQLGVA (Mammalian) [MMI-0200]	100	110	128	95	108
